{"source": "patent US11130794B2", "about": "“Bifunctional compounds” (Novo Nordisk A/S, priority 2017, dated 2021)", "target": "T1, hPCSK9 (Homo sapiens, UniProt Q8NBP7)", "T1 construct": "purchased Sino Biologicals, China", "T1 sequence (Q8NBP7 153-692)": "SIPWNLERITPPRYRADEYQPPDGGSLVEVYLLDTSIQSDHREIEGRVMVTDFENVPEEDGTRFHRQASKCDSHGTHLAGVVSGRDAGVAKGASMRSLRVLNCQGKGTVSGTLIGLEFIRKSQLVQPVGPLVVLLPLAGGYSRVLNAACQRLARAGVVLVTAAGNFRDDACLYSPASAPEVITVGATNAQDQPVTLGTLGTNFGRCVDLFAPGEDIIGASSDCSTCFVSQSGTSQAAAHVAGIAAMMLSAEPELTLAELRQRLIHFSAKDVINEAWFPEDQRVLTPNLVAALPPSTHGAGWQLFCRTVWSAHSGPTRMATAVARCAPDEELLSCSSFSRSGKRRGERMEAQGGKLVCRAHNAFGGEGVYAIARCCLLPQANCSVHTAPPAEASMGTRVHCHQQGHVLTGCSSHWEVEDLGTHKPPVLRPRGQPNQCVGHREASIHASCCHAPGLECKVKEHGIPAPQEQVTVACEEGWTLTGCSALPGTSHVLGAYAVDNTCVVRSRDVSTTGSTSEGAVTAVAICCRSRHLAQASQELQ", "assay": "C6 hPCSK9 challenge model, LDL-R expression in mouse liver (Western blot)", "assay_type": "in vivo", "conditions": "healthy control 100%, hPCSK9 alone 0%", "protocol": "Sixty minutes after the injection of hPCSK9, the animals are anaesthetised in isoflurane and euthanised by cervical dislocation. The liver is then quickly excised and snapfrozen in liquid nitrogen. The livers are kept at −80° C. until analysis.\nThe proteins are transferred to nitrocellulose membranes (iBlot 2 NC Regular stacks, novex #IB23001) according to manufacturer's instructions (Life Technology). Equal protein transfer is confirmed by Ponceau S (Sigma, P7170) staining of the membranes and the membranes are further blocked in blocking buffer (TBS-T, 2% Tween). […] Quantitative analysis of chemiluminescent signals from Western blots is done with MultiGauge software (Fujifilm).\nThe LDL-R expression levels were measured by Western Blot, and the expression levels compared."}
{"substance": "Alirocumab: anti-PCSK9 antibody, control molecule in the hPCSK9 challenge model", "values": [{"measurement": "Percentage of baseline (%) Mean ± SEM", "setting": "compound 30 nmol/kg", "result": "100 ± 13", "unit": "%"}, {"measurement": "Percentage of baseline (%)", "setting": "inhibitor 22 nmol/kg", "result": 157, "unit": "%"}]}
